In paper PMC9463662, “Selection of DNA aptamer and its application as an electrical biosensor for Zika virus detection in human serum”:

Experiments:
[1] = molecular target: T1, Zika virus envelope protein (Zika virus, UniProt A0A221S5X1 1-403); experiment: bead-based fluorescence binding assay; protein on streptavidin beads; conditions: protein: commercial
[2] = molecular target: T1, Zika virus envelope protein; experiment: capacitance biosensor; aptamer/MXene on Au micro-gap electrode; DIW or 10% human serum; LOD 38.14 pM in serum; conditions: protein: commercial
[3] = molecular target: albumin (bovine serum albumin in sensor test) (UniProt P02769 25-607); experiment: capacitance biosensor; bovine serum albumin
Sequence of albumin (bovine serum albumin in sensor test) (P02769 25-607): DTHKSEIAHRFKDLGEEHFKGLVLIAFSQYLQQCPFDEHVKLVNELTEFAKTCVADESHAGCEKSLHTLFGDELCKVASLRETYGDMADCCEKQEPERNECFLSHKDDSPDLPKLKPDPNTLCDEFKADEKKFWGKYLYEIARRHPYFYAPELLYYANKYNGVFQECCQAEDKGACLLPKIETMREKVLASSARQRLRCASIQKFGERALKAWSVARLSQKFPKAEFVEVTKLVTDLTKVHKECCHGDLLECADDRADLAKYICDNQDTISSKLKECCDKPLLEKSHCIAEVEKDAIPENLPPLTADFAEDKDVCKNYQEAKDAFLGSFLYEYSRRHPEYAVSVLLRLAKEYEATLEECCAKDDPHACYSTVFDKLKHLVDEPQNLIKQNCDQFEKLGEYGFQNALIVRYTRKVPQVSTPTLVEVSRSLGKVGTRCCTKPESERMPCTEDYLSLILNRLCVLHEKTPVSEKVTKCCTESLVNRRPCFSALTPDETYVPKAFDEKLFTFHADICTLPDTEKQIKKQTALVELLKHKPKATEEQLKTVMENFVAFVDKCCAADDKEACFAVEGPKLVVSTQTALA

| Binder | Kd [1] [nM] | binding result [2] | binding result [3] |
| --- | --- | --- | --- |
| Zika-25 aptamer, 5'-FAM (ssDNA) DNA: TGACACCGTACCTGCTCTAAGCACGCCAAGGGACTATAGGTTGACACCGTACCTGCTCTAAGCACGCCAAGGGACTAT | 226 ± 9.6 | – | – |
| Zika-07 (Zika-7) aptamer, 5'-FAM (ssDNA) DNA: TGACACCGTACCTGCTCTAGTGCGCACTGAACGATCCTGCGTCAAGTTCAAGGTTGTGAAGCACGCCAAGGGACTAT | 107 ± 1.9 | – | – |
| thiol-modified Zika-07 aptamer (ssDNA, 5'-SH) DNA: TGACACCGTACCTGCTCTAGTGCGCACTGAACGATCCTGCGTCAAGTTCAAGGTTGTGAAGCACGCCAAGGGACTAT | – | binds | no binding |
